Values joined by “and” are separate entries in the source; they are usually repeats but may differ in a detail not shown here. Identical values can stand only once.
Test system: cyno GHR
Assay: Biacore kinetics and affinity, captured IgG, cyno GHR analyte, 25° C.
Type: binding, cynomolgus monkey
Details: IgG immobilized by capture
Procedure: The affinity of a mouse anti-GHR antibody, Ab13, to human and cyno GHR was measured on a Biacore™ 2000 biosensor (GE Lifesciences™, Piscataway N.J.). An anti-mouse Ig sensor surface was prepared using a Biacore™ CM5 chip and reagents from the Biacore™ mouse antibody capture kit (GE Lifesciences™, Catalog# BR-1008-38), using instructions provided by the manufacturer.
The kinetics assay was run using a kinetic titration methodology as described in Karlsson et al., 2006, Anal. Biochem 349, 136-147. The mouse antibody, Ab13, was captured onto downstream flow cells at 0.5 μg/mL at a flow rate of 5 μL/min for 1 minute, 2 minutes and 4 minutes on flow cells 2, 3 and 4 respectively. Flow cell 1 was used as a reference surface. […]
The affinities of a humanized GHR antibody, SS1, and a chimeric molecule comprising the Fab of Ab13 fused to a human Fc domain (“Ab13-hFc”) to human and cyno GHR was measured on a Biacore™ 2000 biosensor (GE Lifesciences™ Piscataway N.J.). […]
The kinetics assay was run using a methodology with varying dissociation times as described in Katsamba et al., 2006, Anal. Biochem 352, 208-221. […] After the analyte injection, dissociation was monitored for 30 minutes (for the 400 nM GHR cycle) or 30 seconds (all other cycles) followed by regeneration of all flow cells with two 30-second injections of 75 mM phosphoric acid. […]

cyno GHR, sequence (as listed by the source): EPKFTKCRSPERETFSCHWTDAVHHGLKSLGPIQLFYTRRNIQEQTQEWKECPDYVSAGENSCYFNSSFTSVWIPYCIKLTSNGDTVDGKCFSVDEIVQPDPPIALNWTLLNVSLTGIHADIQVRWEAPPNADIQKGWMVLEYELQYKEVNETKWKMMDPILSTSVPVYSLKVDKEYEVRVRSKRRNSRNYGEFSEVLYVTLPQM

B1: SS1: humanized GHR antagonist antibody; VL SEQ ID NO: 7, VH SEQ ID NO: 8; hIgG2Δa heavy chain SEQ ID NO: 134, light chain SEQ ID NO: 135 (antibody)
heavy: EVQLVESGGGLVKPGGSLRLSCAASGFTFSDAWMDWVRQAPGKGLEWVAEIRSKANYHATYYAESVKGRFTISRDDSKNTLYLQMNSLKTEDTAVYYCTLIRDYWGQGTLVTVSSASTKGPSVFPLAPCSRSTSESTAALGCLVKDYFPEPVTVSWNSGALTSGVHTFPAVLQSSGLYSLSSVVTVPSSNFGTQTYTCNVDHKPSNTKVDKTVERKCCVECPPCPAPPVAGPSVFLFPPKPKDTLMISRTPEVTCVVVDVSHEDPEVQFNWYVDGVEVHNAKTKPREEQFNSTFRVVSVLTVVHQDWLNGKEYKCKVSNKGLPSSIEKTISKTKGQPREPQVYTLPPSREEMTKNQVSLTCLVKGFYPSDIAVEWESNGQPENNYKTTPPMLDSDGSFFLYSKLTVDKSRWQQGNVFSCSVMHEALHNHYTQKSLSLSPGK
light: EIVLTQSPGTLSLSPGERATLSCTATSSVSSSYLNWYQQKPGQAPRLLIYSTSNLASGIPDRFSGSGSGTDFTLTISRLEPEDFAVYYCHQYHRSTPTFGGGTKVEIKRTVAAPSVFIFPPSDEQLKSGTASVVCLLNNFYPREAKVQWKVDNALQSGNSQESVTEQDSKDSTYSLSSTLTLSKADYEKHKVYACEVTHQGLSSPVTKSFNRGEC
modifications: Humanized and/or affinity matured antibody sequence
- ka: 89000 M⁻¹ s⁻¹ and 81000 M⁻¹ s⁻¹
- kd: 0.00011 s⁻¹ and 0.0001 s⁻¹
